Article PMC13389190

Columns and labels:
[1] = biological target: ZF-NB23_D1
[2] = biological target: ZF-NB23
[3] = biological target: ZF-NB23; remark: listed apart in the source
[4] = biological target: NB15_C1-T7 RNAP
[5] = biological target: ZF-NB23; remark: listed apart in the source

Sequence of ZF-NB23 (heavy, as listed by the source): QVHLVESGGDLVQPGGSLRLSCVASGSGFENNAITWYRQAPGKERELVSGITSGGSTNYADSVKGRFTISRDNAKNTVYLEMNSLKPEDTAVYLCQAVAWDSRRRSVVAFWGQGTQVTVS

## recombinant trimeric SARS-CoV-2 spike protein (from UniProt P0DTC2 14-1273) (natural protein)
[1]
  MDC (minimal detectable concentration of Spike in the fully de novo sensor): 33.3 nM
[2]
  MDC (minimal detectable concentration of Spike, trehalase / glucose read-out): 330 pM
[3]
  MDC (minimal detectable concentration of Spike in the ZF-NB23 / NB15-T7 RNAP sensor): 13 pM
[4]
  MDC (minimal detectable concentration of Spike in the fully de novo sensor): 33.3 nM
[5]
  MDC (minimal detectable concentration of Spike in the ZF-NB23 / NB15-T7 RNAP sensor, 10% nasal swab sample): 40 pM
